US10613105

Target: TLR2/6 receptor expressed on NIH 3T3 TLR2/6 receptor cells (whole-cell sensor elements, printed or pipetted)
Assay: fluorescence of rhodamine-labeled pyrogen bound to printed or pipetted receptor cells on a membrane, against the control cell line and membrane; after drying, ethanol fixing or storage at 4° C.

Pam3CSK4 with rhodamine labeling (peptide)
delta of the fluorescence intensity: > 3000 a.u.
